# Earlier results in publication PMC6214620.
# Tested on: Lys53
# Settings: ferric; His-Fe-Lys converting to a water-bound, lysine-deligated state
substance,measurement,value
Truncated hemoglobin THB1 (Chlamydomonas reinhardtii),pKa,~ 6.5
